Assay results from patent US20160194394A1 (GOVERNING COUNCIL OF THE UNIVERSITY OF TORONTO, published 2016).
Like-named read-outs stand apart in the source and are kept apart here.

T1: human Fzd5-Fc
T1 construct: also called FZD5 ECD; Fzd5 CRD-Fc fusion protein (R&D systems); not shown: exact vendor limits of the CRD construct
T1 chain: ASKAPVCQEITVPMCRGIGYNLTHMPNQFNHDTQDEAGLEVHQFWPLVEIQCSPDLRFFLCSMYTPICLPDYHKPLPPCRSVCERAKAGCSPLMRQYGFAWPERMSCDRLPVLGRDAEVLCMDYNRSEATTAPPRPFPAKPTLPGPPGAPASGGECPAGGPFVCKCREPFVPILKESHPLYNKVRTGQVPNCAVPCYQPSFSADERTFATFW

T2: human Fzd8-Fc
T2 construct: also called FZD8 ECD; Fzd8 CRD-Fc fusion protein (R&D systems); not shown: exact vendor limits of the CRD construct
T2 chain: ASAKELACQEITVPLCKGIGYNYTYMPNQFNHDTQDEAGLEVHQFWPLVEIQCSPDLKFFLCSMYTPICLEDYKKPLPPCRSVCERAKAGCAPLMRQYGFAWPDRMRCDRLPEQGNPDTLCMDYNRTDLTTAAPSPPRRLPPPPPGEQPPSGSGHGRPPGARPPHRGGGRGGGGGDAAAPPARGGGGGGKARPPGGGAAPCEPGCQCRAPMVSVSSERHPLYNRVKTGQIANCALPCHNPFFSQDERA

T3: FZD4 ECD
T3 construct: also called Fzd4 CRD-Fc fusion protein (R&D systems); not shown: exact vendor limits of the CRD construct
T3 chain: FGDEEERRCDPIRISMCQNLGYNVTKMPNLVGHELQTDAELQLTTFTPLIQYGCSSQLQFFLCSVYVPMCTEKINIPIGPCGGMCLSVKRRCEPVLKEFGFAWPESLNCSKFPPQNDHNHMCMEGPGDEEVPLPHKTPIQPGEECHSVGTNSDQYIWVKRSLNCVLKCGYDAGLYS

B1: Fab A1 (Fab)
chain 1: EVQLVESGGGLVQPGGSLRLSCAASGFNISSYYIHWVRQAPGKGLEWVASIYPYYSSTYYADSVKGRFTISADTSKNTAYLQMNSLRAEDTAVYYCARVWYGAMDYWGQGTLVTVSSASTKGPSVFPLAPSSKSTSGGTAALGCLVKDYFPEPVTVSWNSGALTSGVHTFPAVLQSSGLYSLSSVVTVPSSSLGTQTYICNVNHKPSNTKVDKKVEPKSC
chain 2: DIQMTQSPSSLSASVGDRVTITCRASQSVSSAVAWYQQKPGKAPKLLIYSASSLYSGVPSRFSGSRSGTDFTLTISSLQPEDFATYYCQQYYHPITFGQGTKVEIKRTVAAPSVFIFPPSDSQLKSGTASVVCLLNNFYPREAKVQWKVDNALQSGNSQESVTEQDSKDSTYSLSSTLTLSKADYEKHKVYACEVTHQGLSSPVTKSFNRGECGGS
B2: Fab H10 (Fab)
chain 1: EVQLVESGGGLVQPGGSLRLSCAASGFNIYYYSMHWVRQAPGKGLEWVASIYSSYSYTSYADSVKGRFTISADTSKNTAYLQMNSLRAEDTAVYYCARSSPGADYGLDYWGQGTLVTVSSASTKGPSVFPLAPSSKSTSGGTAALGCLVKDYFPEPVTVSWNSGALTSGVHTFPAVLQSSGLYSLSSVVTVPSSSLGTQTYICNVNHKPSNTKVDKKVEPKSC
chain 2: DIQMTQSPSSLSASVGDRVTITCRASQSVSSAVAWYQQKPGKAPKLLIYSASSLYSGVPSRFSGSRSGTDFTLTISSLQPEDFATYYCQQWAYGPFTFGQGTKVEIKRTVAAPSVFIFPPSDSQLKSGTASVVCLLNNFYPREAKVQWKVDNALQSGNSQESVTEQDSKDSTYSLSSTLTLSKADYEKHKVYACEVTHQGLSSPVTKSFNRGECGGS

Columns and labels:
human Fzd1-Fc = target: T4, human Fzd1-Fc; assay: SPR
T4 construct: also called FZD1 ECD; Fzd1 CRD-Fc fusion protein (R&D systems); not shown: exact vendor limits of the CRD construct
T4 sequence (chain, as listed by the source limits assumed): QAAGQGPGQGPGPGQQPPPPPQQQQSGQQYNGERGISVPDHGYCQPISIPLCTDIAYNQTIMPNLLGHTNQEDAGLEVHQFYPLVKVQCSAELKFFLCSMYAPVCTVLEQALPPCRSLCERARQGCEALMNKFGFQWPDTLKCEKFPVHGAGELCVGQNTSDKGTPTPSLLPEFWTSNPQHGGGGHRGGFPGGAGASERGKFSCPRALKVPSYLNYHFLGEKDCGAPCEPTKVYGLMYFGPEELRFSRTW

mouse Fzd2-Fc = target: T5, mouse Fzd2-Fc; assay: SPR
T5 construct: also called mFZD2 ECD; Fzd2 CRD-Fc fusion protein (R&D systems); not shown: exact vendor limits of the CRD construct
T5 sequence (chain, as listed by the source limits assumed): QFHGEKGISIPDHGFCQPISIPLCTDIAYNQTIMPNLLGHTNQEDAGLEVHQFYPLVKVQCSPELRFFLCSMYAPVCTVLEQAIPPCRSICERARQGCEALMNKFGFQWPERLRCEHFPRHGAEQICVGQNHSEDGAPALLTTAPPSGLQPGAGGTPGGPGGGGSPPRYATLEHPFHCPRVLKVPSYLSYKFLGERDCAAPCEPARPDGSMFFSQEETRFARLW

human Fzd5-Fc = target: T1, human Fzd5-Fc; assay: SPR
human Fzd8-Fc = target: T2, human Fzd8-Fc; assay: SPR
FZD4 ECD = target: T3, FZD4 ECD; assay: SPR
[1] = target: T6, recombinant Frizzled receptor 7 (FZD7) cysteine-rich domain (CRD) fused to the Fc region of human IgG (human, UniProt O75084 33-185); assay: SPR
[2] = target: T6, recombinant Frizzled receptor 7 (FZD7) …; assay: SPR; remark: listed apart in the source
[3] = target: T7, FZD7 receptor expressed on cells (full-length) (UniProt O75084 33-574, limits assumed); assay: cell-based or functional assay
[4] = target: T6, recombinant Frizzled receptor 7 (FZD7) …; assay: ELISA, 1ug/ml (20nM) Fab [cont'd]
Method in brief: (§1)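 Plates coated with 2 ug/ml FZD7-Fc or Fc protein were probed with bacterially expressed purified Fabs for 1 h at room temperature in 0.5% BSA/0.05% Tween20/PBS. Bound Fab detected with anti-FLAG-HRP for 45 min, developed with TMB and acid stop, and read as absorbance at 450 nm; n.t. = not tested.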

[5] = target: T6, recombinant Frizzled receptor 7 (FZD7) …; assay: ELISA, 10ug/ml (200nM) Fab [cont'd]
Method in brief: as §1

[6] = target: T6, recombinant Frizzled receptor 7 (FZD7) …; assay: competitive ELISA, detected phage-Fab A1
[7] = target: T6, recombinant Frizzled receptor 7 (FZD7) …; assay: competitive ELISA, detected phage-Fab E4
[8] = target: T6, recombinant Frizzled receptor 7 (FZD7) …; assay: competitive ELISA, detected phage-Fab E8
[9] = target: T6, recombinant Frizzled receptor 7 (FZD7) …; assay: competitive ELISA, detected phage-Fab G2
[10] = target: T6, recombinant Frizzled receptor 7 (FZD7) …; assay: competitive ELISA, detected phage-Fab G6
[11] = target: T6, recombinant Frizzled receptor 7 (FZD7) …; assay: competitive ELISA, detected phage-Fab H1
[12] = target: T6, recombinant Frizzled receptor 7 (FZD7) …; assay: competitive ELISA, detected phage-Fab H3
[13] = target: T6, recombinant Frizzled receptor 7 (FZD7) …; assay: competitive ELISA, detected phage-Fab D10
[14] = target: T6, recombinant Frizzled receptor 7 (FZD7) …; assay: competitive ELISA, detected phage-Fab H10
[15] = target: T7, FZD7 receptor expressed on cells …; assay: flow cytometry, 200 nM Fab, MDA MB 231 [cont'd]
Method in brief: (§2)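 EDTA-harvested MDA MB 231 cells, either FZD7-overexpressing or with endogenous receptor, were blocked in 2% FBS/PBS and stained with Fab for 30 min on ice. Detection used anti-F(ab′)₂-APC (1:1000, 15 min on ice), then 1% paraformaldehyde fixation and flow cytometry. Values are percent of cells in positive gates.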

[16] = target: T7, FZD7 receptor expressed on cells …; assay: flow cytometry, 200 nM Fab, FZD7 over-expression line (MDA MB 231) [cont'd]
Method in brief: as §2

[17] = target: T6, recombinant Frizzled receptor 7 (FZD7) …; assay: ELISA, 1ug/ml (20nM) Fab
Method in brief: as §1

[18] = target: T6, recombinant Frizzled receptor 7 (FZD7) …; assay: ELISA, 10ug/ml (200nM) Fab
Method in brief: as §1

[19] = target: T7, FZD7 receptor expressed on cells …; assay: flow cytometry, 200 nM Fab, MDA MB 231
Method in brief: as §2

[20] = target: T7, FZD7 receptor expressed on cells …; assay: flow cytometry, 200 nM Fab, FZD7 over-expression line (MDA MB 231)
Method in brief: as §2

| Kd (human Fzd1-Fc) [nM] | Kd (mouse Fzd2-Fc) [nM] | Kd (human Fzd5-Fc) [nM] | Kd (human Fzd8-Fc) [nM] | Kd [1] [nM] | Kd [2] [nM] | koff [2] [s⁻¹] | kon [2] [M⁻¹ s⁻¹] | decrease in Wnt 3a-induced transcriptional activity (TOP-FLASH luciferase reporter in MDA MB 231 cells, 400 nM Fab) [3] [%] | % of Fab phage in presence of 750 nM Fab [6] [%] | % of Fab phage in presence of 750 nM Fab [7] [%] | % of Fab phage in presence of 750 nM Fab [8] [%] | % of Fab phage in presence of 750 nM Fab [9] [%] | % of Fab phage in presence of 750 nM Fab [10] [%] | % of Fab phage in presence of 750 nM Fab [11] [%] | % of Fab phage in presence of 750 nM Fab [12] [%] | % of Fab phage in presence of 750 nM Fab [13] [%] | % of Fab phage in presence of 750 nM Fab [14] [%] | further results | Binder |
| --- | --- | --- | --- | --- | --- | --- | --- | --- | --- | --- | --- | --- | --- | --- | --- | --- | --- | --- | --- |
| 1.07 | 1.75 | 15.8 | 9.31 | 2.09 | 2.09 | 0.000994 | 476000 | > 70 | 4.2 | 7.3 | 6.5 | 4.7 | 8.2 | 13.7 | 15.1 | 5 | 5.2 | Kd (FZD4 ECD): 13.3 nM; OD 450 [4]: 3.22; OD 450 [5]: 3.23; % population within the positive gate [15]: 98.6%; % population within the positive gate [16]: 93.1% | B1 |
| 3.67 | 0.95 | 3.06 | 2.5 | 1.03 | 1.03 | 0.000548 | 533000 | > 70 | 21.8 | 20.9 | 7.1 | 7.4 | 29.1 | 53.5 | 27.7 | 6.8 | 7.4 | OD 450 [17]: 3.19; OD 450 [18]: 3.22; % population within the positive gate [19]: 99%; % population within the positive gate [20]: 93.2% | B2 |
